Test results from patent publication US20100280227A1 (Genentech, published 2010).
“And” between values parts separate entries of the source, which are not always exact repeats. Equal values may be shown once.

Key:
[1] = target: T1, human BR3 extracellular domain (human, UniProt Q96RJ3 1-61); test: SPR BIAcore-2000, hBR3-ECD on chip, Fab injected
T1 construct: biotinylated where used as tracer; also called hBR3-ECD; BR3-ECD
Source text: (§1) Biacore measurement Surface plasmon resonance assays on a BIAcore™-2000 were used to determine the affinity of anti-BR3 Fabs. […] For kinetics analysis, 1:1 Languir model of simultaneous fitting of kₒₙ and koff was used.

[2] = target: T1, human BR3 extracellular domain; test: SPR BIAcore-2000, ECD on chip, Fab injected
Source text: as §1

[3] = target: T2, mouse BR3 extracellular domain (mouse, UniProt Q9D8D0 1-64); test: SPR BIAcore-2000, ECD on chip, Fab injected
T2 construct: also called mBR3-ECD; mBR-ECD
T2 sequence: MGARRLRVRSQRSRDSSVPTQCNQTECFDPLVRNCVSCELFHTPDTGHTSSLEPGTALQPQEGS
Source text: as §1

[4] = target: T2, mouse BR3 extracellular domain; test: SPR BIAcore-2000, mBR3-ECD on chip, Fab injected
Source text: as §1

[5] = target: T1, human BR3 extracellular domain; test: phage competition ELISA
[6] = target: T2, mouse BR3 extracellular domain; test: phage competition ELISA
[7] = target: T1, human BR3 extracellular domain; test: single spot phage competition ELISA; OD with competitor / OD without competitor; criterion met by the picked clones
[8] = target: T2, mouse BR3 extracellular domain; test: as above
MiniBR3 peptide = target: T3, MiniBR3 peptide (human, C-terminal amide; disulfide between cysteines 24 and 35 and a second disulfide (BR3 numbering)); test: phage competition ELISA
T3 construct: synthetic
T3 sequence (peptide, as listed by the source): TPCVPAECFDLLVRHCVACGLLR

[9] = target: T1, human BR3 extracellular domain; test: F(ab)'2 phage solution binding competition ELISA
Procedure: (§2) Third, a competition ELISA was performed. […] The wells were blocked by adding 65 ul 1% BSA for 30 minutes followed by 40 ul 1% Tween20 for another 30 minutes. The wells were washed with PBS—0.05% Tween20 5 times. […] The wells of the second plate were washed with PBS—0.5% Tween20 at least three times. 75 ul of HRP-conjugated anti-M13 antibody (1/5000 dilution with ELISA buffer) per well was added and incubated at room temperature for 30 minutes. The wells were washed again with PBS—0.05% Tween20 at least five times.

mouse BR3-Fc [10] = target: T4, mouse BR3-Fc (mouse); test: F(ab)'2 phage solution binding competition ELISA
T4 construct: (BR3 ECD fused to a murine Fc); also called mBR3-Fc; murine BR3-Fc
T4 chain: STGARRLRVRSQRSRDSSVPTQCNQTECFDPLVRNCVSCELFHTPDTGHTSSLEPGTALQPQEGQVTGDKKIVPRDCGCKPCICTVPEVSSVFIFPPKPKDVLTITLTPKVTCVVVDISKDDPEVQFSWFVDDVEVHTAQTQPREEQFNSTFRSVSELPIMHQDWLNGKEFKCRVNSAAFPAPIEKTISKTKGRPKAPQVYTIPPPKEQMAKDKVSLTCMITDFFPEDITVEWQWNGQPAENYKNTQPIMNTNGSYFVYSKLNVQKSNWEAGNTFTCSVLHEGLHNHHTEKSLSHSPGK
Procedure: as §2

mouse BR3-Fc [11] = target: T4, mouse BR3-Fc; test: BAFF blocking ELISA: F(ab)'2 phage added to coated mBR3-Fc after mBAFF-Flag
Procedure: The wells were blocked by adding 65 ul 1% BSA for 30 minutes followed by 40 ul 1% Tween20 for another 30 minutes. Next, the wells were washed five times with PBS—0.05% Tween20. […] The wells were washed five times with PBS—0.05% Tween20.
Binding was quantified by adding 75 ul/well of horse radish peroxidase (HRP)-conjugated anti-M13 antibody in PBS plus 0.5% BSA and 0.05% Tween20 at room temperature for 30 minutes (Sidhu et al., supra). The wells were washed with PBS—0.05% Tween20 at least five times.

[12] = target: T2, mouse BR3 extracellular domain; test: F(ab)'2 phage solution binding competition ELISA
Procedure: as §2

[13] = target: T5, variant human BR3-Fc fusion; test: SPR, vBR3-Fc on chip;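 further: Anti-BR3 antibodies passed over chip-bound BR3-Fc in PBS with 0.05% polysorbate 20, on and off rates fitted together globally to a 1:1 binding model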
T5 construct: produced in CHO cells; also called vBR3-Fc; vhBR3-Fc

[14] = target: T1, human BR3 extracellular domain; test: SPR, BR3 ECD on chip;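 further: Anti-BR3 antibodies passed over the chip at high flow in PBS with 0.05% polysorbate 20, on and off rates fitted together globally to a 1:1 binding model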
[15] = target: T1, human BR3 extracellular domain; test: SPR with Fab
Procedure: (§3) Each sample was analysed with 2-minute association and 20-minute dissociation. After each injection the chip was regenerated using 10 mM Glycine pH 1.5. Binding response was corrected by subtracting the RU from a blank flow cell. A 1:1 Languir model of simultaneous fitting of kₒₙ and koff was used for kinetics analysis.

[16] = target: T1, human BR3 extracellular domain; test: BIAcore, Fab over immobilised target
Procedure: as §3

[17] = target: T5, variant human BR3-Fc fusion; test: BIAcore, Fab over immobilised target
Procedure: as §3

Binder | Kd [2] [nM] | koff [2] [s⁻¹] | kon [2] [M⁻¹ s⁻¹] | Kd [3] [nM] | OD450nm reduction (%) [7] [%] | OD450nm reduction (%) [8] [%] | IC50 (MiniBR3 peptide) [nM] | binding result [9] | binding result [12] | IC50 (mouse BR3-Fc [10]) [nM] | further results
V3-1 Fab (Fab, V domains shown, soluble Fab in SPR) VH: EVQLVESGGGLVQPGGSLRLSCAASGFTISSNSIHWVRQAPGKGLEWVAWITPSDGNTDYADSVKGRFTISADTSKNTAYLQMNSLRAEDTAVYYCARRVCYNRLGVCAGGMDYWGQGTLVTVSS VL: DIQMTQSPSSLSASVGDRVTITCRASQDVSTAVAWYQQKPGKAPKLLIYSASFLYSGVPSRFSGSGSGTDFTLTISSLQPEDFATYYCQQSRITPPTFGQGTKVEIKR | 7.9 | 0.000293 | 37300 | 2.5 | < 50 | < 50 | 5.4 |  |  |  | Kd [1]: 7.87 nM; koff [1]: 0.000293 s⁻¹; kon [1]: 37300 M⁻¹ s⁻¹; koff [3]: 0.000195 s⁻¹; kon [3]: 77100 M⁻¹ s⁻¹; Kd [4]: 2.5 nM; koff [4]: 0.000195 s⁻¹; kon [4]: 77100 M⁻¹ s⁻¹; IC50 [5]: 9.4 nM; IC50 [6]: 9.5 nM
89 (Fab, V domains shown, also called V89; clone 89) VH: EVQLVESGGGLVQPGGSLRLSCAASGFTITGYGIHWVRQAPGKGLEWVAGITPANGYTDYADSVKGRFTISADTSKNTAYLQMNSLRAEDTAVYYCAKSFPFHYNFDYWGQGTLVTVSS VL: DIQMTQSPSSLSASVGDRVTITCRASQDVSTAVAWYQQKPGKAPKLLIYSASFLYSGVPSRFSGSGSGTDFTLTISSLQPEDFATYYCQQSYTTPPTFGQGTKVEIKR |  |  |  |  |  |  |  |  | no binding | 37 | Blocking to % (phage bound in the presence of BAFF) (mouse BR3-Fc [11]): 90%; IC50 [9]: 5000 nM
96 (Fab, V domains shown, also called V96; clone 96) VH: EVQLVESGGGLVQPGGSLRLSCAASGFTINSSAIHWVRQAPGKGLEWVGYITPASGYTDYADSVKGRFTISADTSKNTAYLQMNSLRAEDTAVYYCAKGFHWYRGFFDYWGQGTLVTVSS VL: DIQMTQSPSSLSASVGDRVTITCRASQDVSTAVAWYQQKPGKAPKLLIYSASFLYSGVPSRFSGSGSGTDFTLTISSLQPEDFATYYCQQSYTTPPTFGQGTKVEIKR |  |  |  |  |  |  |  | binds | no binding | 200 | Blocking to % (phage bound in the presence of BAFF) (mouse BR3-Fc [11]): 65%
V3-13 Fab (Fab, V domains shown, soluble Fab in SPR) VH: EVQLVESGGGLVQPGGSLRLSCAASGFTISRRSIHWVRQAPGKGLEWVAWITPSDGNTDYADSVKGRFTISADTSKNTAYLQMNSLRAEDTAVYYCARRVCYSSVRGCAGAMDYWGQGTLVTVSS VL: DIQMTQSPSSLSASVGDRVTITCRASQDVSTAVAWYQQKPGKAPKLLIYGASNLYSGVPSRFSGSGSGTDFTLTISSLQPEDFATYYCQQSHASPPTFGQGTKVEIKR | 1200 | 0.0028 | 2300 | 40 | < 50 | < 50 | 473 |  |  |  | 
24 (Fab, V domains shown, also called V24; clone 24) VH: EVQLVESGGGLVQPGGSLRLSCAASGFTISGSSIHWVRQAPGKGLEWVGTIYPYGGNTYYADSVKGRFTISADTSKNTAYLQMNSLRAEDTAVYYCARRAFVMSGMDYWGQGTLVTVSS VL: DIQMTQSPSSLSASVGDRVTITCRASQDVSTAVAWYQQKPGKAPKLLIYSASFLYSGVPSRFSGSGSGTDFTLTISSLQPEDFATYYCQQSYTTPPTFGQGTKVEIKR |  |  |  |  |  |  |  | binds | no binding | 133 | Blocking to % (phage bound in the presence of BAFF) (mouse BR3-Fc [11]): 90%
V3-12 Fab (Fab, V domains shown, soluble Fab in SPR) VH: EVQLVESGGGLVQPGGSLRLSCAASGFTISSNSIHWVRQAPGKGLEWVAWITPSDGNTDYADSVKGRFTISADTSKNTAYLQMNSLRAEDTAVYYCARRVCYDRARVCAGAMDYWGQGTLVTVSS VL: DIQMTQSPSSLSASVGDRVTITCRASQDVSTAVAWYQQKPGKAPKLLIYSASFLYSGVPSRFSGSGSGTDFTLTISSLQPEDFATYYCQQSYSTPPTFGQGTKVEIKR | 72 | 0.00091 | 13000 | 36 | < 50 | < 50 | 35 |  |  |  | koff [3]: 0.0013 s⁻¹; kon [3]: 36000 M⁻¹ s⁻¹
Hu9.1-RF Fab (Fab, V domains shown) VH: EVQLVESGGGLVQPGGSLRLSCAASGFTVTAYYMSWVRQAPGKGLEWVGFIRDKANGYTTEYNPSVKGRFTISRDTSKNTFYLQMNSLRAEDTAVYYCAQVRRALDYWGQGTLVTVSS VL: DIQMTQSPSSLSASVGDRVTITCKSSQSLLYSSNQNNYLAWYQQKPGKAPKLLIYWASTRESGVPSRFSGSGSGTDFTLTISSLQPEDFATYYCQQYYTYPYTFGQGTKVEIKR |  |  |  |  |  |  |  |  |  |  | Kd [13]: 6.4 nM; koff [13]: 0.00186 s⁻¹; kon [13]: 290000 M⁻¹ s⁻¹; Kd [14]: 0.14 nM; koff [14]: 0.000294 s⁻¹; kon [14]: 2.02e+06 M⁻¹ s⁻¹; fold higher affinity than the chimeric 9.1 Fab [15]: ~2 fold
Hu11G9-46 Fab (Fab, V domains shown, Fab) VH: EVQLVESGGGLVQPGGSLRLSCAASGDSITSGYWNWVRQAPGKGLEWVGYISYSGSTYYNPSLKSRFTISRDTSKNTFYLQMNSLRAEDTAVYYCAGLNDLYLYFDVWGQGTLVTVSS VL: DIQMTQSPSSLSASVGDRVTITCRSSQSLVHSNGNTYLHWYQQKPGKAPKLLIYKVSNRFSGVPSRFSGSGSGTDFTLTISSLQPEDFATYYCSQSTHVPPFTFGQGTKVEIKR |  |  |  |  |  |  |  |  |  |  | Kd [16]: 1.5 nM; Kd [17]: 5.4 nM; Kd [13]: 1.38 nM and 1.62 nM; koff [13]: 0.000902 s⁻¹ and 0.000808 s⁻¹; kon [13]: 660000 M⁻¹ s⁻¹ and 500000 M⁻¹ s⁻¹; Kd [14]: 0.46 nM and 0.652 nM; koff [14]: 0.000808 s⁻¹ and 0.000867 s⁻¹; kon [14]: 1.76e+06 M⁻¹ s⁻¹ and 1.33e+06 M⁻¹ s⁻¹; fold improved affinity relative to the chimeric 11G9 Fab [15]: > 10 fold

More lines, main results first:

Kd [2] [nM] | koff [2] [s⁻¹] | kon [2] [M⁻¹ s⁻¹] | Kd [3] [nM] | OD450nm reduction (%) [7] [%] | OD450nm reduction (%) [8] [%] | IC50 (MiniBR3 peptide) [nM] | binding result [9] | binding result [12] | IC50 (mouse BR3-Fc [10]) [nM] | Binder | further results
 |  |  |  |  |  |  | binds |  |  | 46 (Fab, V domains shown, also called V46; clone 46 of the naive library (not V3-46)) VH: EVQLVESGGGLVQPGGSLRLSCAASGFTITGSYIHWVRQAPGKGLEWVAWIYPDGGYTDYADSVKGRFTISADTSKNTAYLQMNSLRAEDTAVYYCASKPAGFGYWGQGTLVTVSS VL: DIQMTQSPSSLSASVGDRVTITCRASQDVSTAVAWYQQKPGKAPKLLIYSASFLYSGVPSRFSGSGSGTDFTLTISSLQPEDFATYYCQQSYTTPPTFGQGTKVEIKR | binding result (mouse BR3-Fc [10]): binds
 |  |  |  |  |  |  | binds | no binding | > 10000 | 75 (Fab, V domains shown, also called V75; clone 75) VH: EVQLVESGGGLVQPGGSLRLSCAASGFTINGSWIHWVRQAPGKGLEWVAWITPSNGSTDYADSVKGRFTISADTSKNTAYLQMNSLRAEDTAVYYCARLSRRPWLWGMDYWGQGTLVTVSS VL: DIQMTQSPSSLSASVGDRVTITCRASQDVSTAVAWYQQKPGKAPKLLIYSASFLYSGVPSRFSGSGSGTDFTLTISSLQPEDFATYYCQQSYTTPPTFGQGTKVEIKR | 
60.1 | 0.00113 | 21800 | 20.4 | < 50 | < 50 | 11 |  |  |  | V3-11 Fab (Fab, V domains shown, soluble Fab in SPR) VH: EVQLVESGGGLVQPGGSLRLSCAASGFTISSNSIHWVRQAPGKGLEWVAWITPSDGNTDYADSVKGRFTISADTSKNTAYLQMNSLRAEDTAVYYCARRVCYNNLGVCAGAMDYWGQGTLVTVSS VL: DIQMTQSPSSLSASVGDRVTITCRASQDVSTAVAWYQQKPGKAPKLLIYSASFLYSGVPSRFSGSGSGTDFTLTISSLQPEDFATYYCQQTSTSPPTFGQGTKVEIKR | koff [3]: 0.000888 s⁻¹; kon [3]: 43600 M⁻¹ s⁻¹
